# Patent US20250376535A1 (BEIJING STARMAB BIOMED TECHNOLOGY, published 2025)
# Substitutions are numbered along the chain they refer to.
# B1: 4-1BB-9 (VHH, not shown: small tags and cut ends)
# VHH: QVQLVESGGGLVQAGGSLRLSCAASGSIFSYNAVAWYRQAPGKQRELVAVITSGGETTKYADSVKGRFTISRDITKNAVDLQMVSLKPEDTAVYTCAALRNSGSTSWGQGTQVTVSS
# B2: 4-1BB-1 (VHH, not shown: small tags and cut ends)
# VHH: QVQLVESGGGLVQAGGSLRLSCAASENIFSFNAMAWYRQAPGKQRELVALITGDGTTKYADSVKGRFTIARLNAKNTVNLEMNSLKPEDTAVYTCAALRNSDRTSWGQGTQVTVSS
# B3: 4-1BB-3 (VHH, not shown: small tags and cut ends)
# VHH: EVQLVESGGGLVQAGGSLRLSCAASGNIFSYNGMAWYRQAPGNQRELVAVVAIDGTAKYADTVKGRFTISRDNIKNTVNLEMNSLKPEDTAVYTCAALRNSGSTSWGQGTQVTVSS
# B4: 4-1BB-10 (VHH, not shown: small tags and cut ends)
# VHH: EVQLVESGGGLVQAGGSLRLSCAASGAIFSYNGMAWYRQAPGKQREFVAVITPDGTTKYGDSVKGRFTISRDITKNTVDLEMNSLKPEDTAVYTCAALRNSGSTSWGQGTQVTVSS
# B5: 4-1BB-36 (VHH, not shown: small tags and cut ends)
# VHH: EVQLVESGGGLVQPGGSLRLSCAASRRTFSSYTAGWFRQAPGKEREFVASIRWISGTTTYADSVNGRFTISRDIAKNTVYLQMNSLKPDDTAVYYCAVDLSSDNDYDYWGQGTQVTVSS
# B6: 4-1BB-2 (VHH, not shown: small tags and cut ends)
# VHH: QVQLVESGGGLVQAGGSLRLSCAASGSIFSYNAMAWYRQAPGKQRELVALITSDRTTKYADSVKGRFTISRDDTKNTVDLEMNSLKPEDTAVYTCAALLNSARTSWGQGTQVTVSS
# B7: pgDD40-SZ-1 (VHH, not shown: small tags and cut ends)
# VHH: QVQLVESGGALAQPGGSLRLSCEASTNVRSVNAMAWYRQGPGKPRELVANITSDDATYYADSVKGRFTLSREGARNTVYLQMNSLKPEDTAVYQCNVHYTSWGGIRRDYWGRGTQVTVSS
# B8: pgDD40-SZ-2 (VHH, not shown: small tags and cut ends)
# VHH: B7 VHH with Q1E, T26A, N27T, V28I, L47M, D54G, A56T, V97I, W102T
# B9: pgDD40-SZ-5 (VHH, not shown: small tags and cut ends)
# VHH: B7 VHH with T26E, D54G
# B10: pgDD40-SZ-3 (VHH, not shown: small tags and cut ends)
# VHH: QVQLVESGGGLVQAGDSLRLSCTASGRAFNTYTMAWFRQAPGKERDFVAAISRDGTITHYADSVKGRFTTTRDNAKNTMYLQMSSLKYDDTAVYYCAARRVGAVPERESAYEHWGQGTQVTVSS
# B11: pgDD40-SZ-12 (VHH, not shown: small tags and cut ends)
# VHH: EVQLVESGGGLVQPGGSLKLSCAASGFAFSRYTMSWVRQAPGKGLEWVSGIDSGGGRTSYINSVKGRFTISRDNAKNTLYLQMNSLKPEDTAVYHCAQGGDSGSYYRTSWGQGTQVTVSS
# B12: 4-1BB-39 (VHH, not shown: small tags and cut ends)
# VHH: QVQLGSLGGGSAQPGGSLRLSCTGSGNVYDFVVMGWYRQFPGRQRELVANITGRASPNYVDSVKGRFTISRDNAQNTVHLQMNNLKVEDSAIYYCYAAQQLTTIAGVMTLDYWGSGTQVTVSS
# B13: MSA1 (VHH)
# VHH: EVQLVESGGGLAQAGGSLRLSCADSGHSFSLYAMAWFRQTPEKEREFVAAISSSGGDTYYADSVKGRFTISRENAKNTAYLQMDSLKPGDTAVYFCAGNYYTSQLMRGMYEHWGQGTQVTVSS
# notes: Llama single domain antibody with C-terminal His-tag, made in HEK293; not shown: C-terminal His-tag
# B14: MSA B1 (VHH)
# VHH: EVQLVESGGGLVQPGGSLHLSCAASRLTTGVTFSDYGMAWFRQAPGAERELLANINWSGQYTNYRDSVKGRAAIFRDNAKNTLYLNINSLKAEDTAVYYCAASSRKYGPGIKSQYEWWGQGTQVTVSS
# notes: as for B13
# Biological target: T1, Human 41BB antigen (BLI) (human, UniProt Q07011 24-183)
# T1 construct: also called 41BB protein
# Test: BLI, VHH-His on anti-His tips, human 41BB in solution;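 note: association tracked for 200 s, after which dissociation was followed in 1×PBS free of 41BB protein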
# Method: Tips were loaded using 20 μg/ml of anti-41BB VHH. Loading proceeded for 300 sec resulting in capture levels of between 1.8 and 2 nm. […] Association was initiated and monitored for 200 sec, after which tips were transferred to 1×PBS buffer without 41BB protein, in order to monitor dissociation.
# T1 sequence (Q07011 24-183 limits assumed): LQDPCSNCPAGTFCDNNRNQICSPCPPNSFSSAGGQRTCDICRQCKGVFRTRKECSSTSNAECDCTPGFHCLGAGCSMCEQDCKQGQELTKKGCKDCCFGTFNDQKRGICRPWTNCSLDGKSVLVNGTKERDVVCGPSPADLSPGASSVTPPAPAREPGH
Kd [nM],koff [s⁻¹],kon [M⁻¹ s⁻¹],Binder
4.55,0.00276,606000,B1
3.17,0.00264,834000,B2
1.82,0.00129,708000,B3
0.657,0.000539,820000,B4
29.2,0.00919,314000,B5
2.57,0.00252,979000,B6

# Biological target: T2, recombinant human CD40-Fc (human, UniProt P25942 21-193)
# T2 construct: also called rh-CD40-Fc; CD40-hFc
# Test: ELISA, CD40-Fc coated, VHH at 1000 nM
# Method: (§1) After four times washing with PBST, the plate was incubated with detecting antibody anti-his-HRP (1:4000 dilution) 100 μl per well for one hour with shaking at 60 rpm. The plate was developed with 100 μL of TMB per well in the dark and then stopped by 50 μL of stop solution per well.
# T2 sequence (P25942 21-193): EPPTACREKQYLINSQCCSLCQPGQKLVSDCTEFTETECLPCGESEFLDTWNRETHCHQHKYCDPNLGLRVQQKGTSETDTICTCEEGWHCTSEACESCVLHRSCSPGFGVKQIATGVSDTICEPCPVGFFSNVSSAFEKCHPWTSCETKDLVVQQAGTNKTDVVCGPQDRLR
row,OD450,Binder
1,1.68,B7
2,1.64,B8
3,1.67,B9
4,1.57,B10
5,1.54,B11

# Biological target: T3, 4-1BB Fc (human, UniProt Q07011 24-183)
# T3 construct: also called rh-41BB; 41BB-hFc
# Test: ELISA, 4-1BB Fc coated, VHH at 0.005 nM
# Method: (§2) After four rounds of washing with PBST, the plate was incubated with detecting antibody anti-his-HRP (1:4000 dilution) 100 μl per well for one hour with shaking at 60 rpm. The plate was developed with 100 μL of TMB per well in the dark and then stopped by 50 μL of stop solution per well. […] Data was analyzed using GraphPad Prisma 9.1.
# T3 sequence (Q07011 24-183): as the sequence (Q07011 24-183 limits assumed) above
row,OD450,Binder
1,0.064,B1
2,0.064,B2
3,0.067,B3
4,0.066,B4
5,0.064,B12
6,0.068,B5
7,0.063,B6

# Biological target: T2, recombinant human CD40-Fc
# Test: ELISA, CD40-Fc coated, VHH at 0.013 nM
# Method: as §1
row,OD450,Binder
1,0.056,B7
2,0.062,B8
3,0.061,B9
4,0.055,B10
5,0.058,B11

# Biological target: T3, 4-1BB Fc
# Test: ELISA, 4-1BB Fc coated, VHH at 0.0005 nM
# Method: as §2
row,OD450,Binder
1,0.067,B1
2,0.065,B2
3,0.062,B3
4,0.068,B4
5,0.072,B12
6,0.071,B5
7,0.058,B6

# Biological target: T3, 4-1BB Fc
# Test: ELISA, 4-1BB Fc coated, VHH at 0.05 nM
# Method: as §2
row,OD450,Binder
1,0.065,B1
2,0.061,B2
3,0.06,B3
4,0.065,B4
5,0.068,B12
6,0.078,B5
7,0.067,B6

# Biological target: T2, recombinant human CD40-Fc
# Test: ELISA, CD40-Fc coated, VHH at 200 nM
# Method: as §1
row,OD450,Binder
1,1.69,B7
2,1.52,B8
3,1.73,B9
4,1.64,B10
5,0.895,B11

# Biological target: T2, recombinant human CD40-Fc
# Test: ELISA, CD40-Fc coated, VHH at 0.064 nM
# Method: as §1
row,OD450,Binder
1,0.074,B7
2,0.091,B8
3,0.085,B9
4,0.098,B10
5,0.065,B11

# Biological target: T3, 4-1BB Fc
# Test: ELISA, 4-1BB Fc coated, VHH at 50 nM
# Method: as §2
row,OD450,Binder
1,0.292,B1
2,0.308,B2
3,0.183,B3
4,1.76,B4
5,0.065,B12
6,3.19,B5
7,0.129,B6

# Biological target: T3, 4-1BB Fc
# Test: ELISA, 4-1BB Fc coated, VHH at 0.00005 nM
# Method: as §2
row,OD450,Binder
1,0.07,B1
2,0.067,B2
3,0.066,B3
4,0.068,B4
5,0.063,B12
6,0.073,B5
7,0.065,B6

# Biological target: T2, recombinant human CD40-Fc
# Test: ELISA, CD40-Fc coated, VHH at 1.6 nM
# Method: as §1
row,OD450,Binder
1,0.866,B7
2,0.94,B8
3,0.85,B9
4,1.02,B10
5,0.061,B11

# Biological target: T3, 4-1BB Fc
# Test: ELISA, 4-1BB Fc coated, VHH at 5 nM
# Method: as §2
row,OD450,Binder
1,0.084,B1
2,0.108,B2
3,0.089,B3
4,0.828,B4
5,0.07,B12
6,1.35,B5
7,0.07,B6

# Biological target: T4, human serum albumin (human, UniProt P02768 25-609)
# T4 construct: also called HSA
# Test: BLI (Gator), His-tagged VHH on anti-His sensor, HSA 100 nM in solution
# Method: (§3) Kinetic binding analysis of MSA VHHs were performed with Gator Prime system equipped with analyze software. […] The experiments were done at 30° C. Prior to analysis, sensors were socked in Q buffer for 600 sec with shaking at 1000 rpm, and then 2 μM of HIS tagged MSA VHHs were loaded to Anti-His sensors with shaking at 400 rpm for 120 sec. Loaded sensors were transferred into Q buffer for 60 sec. Association of HSA or MSA at 100 nM was initiated and monitored for 120-180 sec with shaking at 1000 rpm, and finally dissociation in Q buffer for 120-180 sec with 1000 rpm shaking. Software V2.0 (Gator Bio) was used for data analysis. The on-rate (Kₒₙ) and off-rate (Kd) were determined by fitting of the association and dissociation phases of each sample. The mathematical model used assumes a 1:1 stoichiometry, fitting only one analyte in solution binding to one binding site on the surface. The equilibrium dissociation constant (KD), a measure for affinity, was then calculated as the ratio of Kd and Kₒₙ.
koff [s⁻¹],Kd [nM],kon [M⁻¹ s⁻¹],Binder
0.0217,,,B13
0.00511,11.3,454000,B14

# Biological target: T3, 4-1BB Fc
# Test: ELISA, 4-1BB Fc coated, VHH at 500 nM
# Method: as §2
row,OD450,Binder
1,0.264,B1
2,0.547,B2
3,0.165,B3
4,1.58,B4
5,0.098,B12
6,4.25,B5
7,0.112,B6

# Biological target: T5, Human CD40 antigen (recombinant, BLI) (human, UniProt P25942 21-193)
# T5 construct: also called rh-CD40
# Test: BLI, VHH-His on anti-His tips, human CD40 in solution;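 note: kinetics measured at 30 °C in PBS pH 7.2, association tracked for 200 s, then dissociation followed in PBS lacking CD40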
# T5 sequence (P25942 21-193 limits assumed): as the sequence (P25942 21-193) above
Kd [nM],koff [s⁻¹],kon [M⁻¹ s⁻¹],Binder
< 0.001,1e-06,779000,B7
0.0047,3.59e-06,765000,B8
< 0.001,1e-06,784000,B9
0.106,7.65e-05,722000,B10
1.43,0.000806,564000,B11

# Biological target: T2, recombinant human CD40-Fc
# Test: ELISA, CD40-Fc coated, VHH at 0.32 nM
# Method: as §1
row,OD450,Binder
1,0.248,B7
2,0.293,B8
3,0.25,B9
4,0.287,B10
5,0.059,B11

# Biological target: T3, 4-1BB Fc
# Test: ELISA, 4-1BB Fc coated, VHH at 0.5 nM
# Method: as §2
row,OD450,Binder
1,0.061,B1
2,0.106,B2
3,0.065,B3
4,0.11,B4
5,0.059,B12
6,0.202,B5
7,0.059,B6

# Biological target: T2, recombinant human CD40-Fc
# Test: ELISA, CD40-Fc coated, VHH at 0.0026 nM
# Method: as §1
row,OD450,Binder
1,0.055,B7
2,0.058,B8
3,0.059,B9
4,0.055,B10
5,0.06,B11

# Biological target: T6, murine serum albumin (murine, UniProt P07724 25-608)
# T6 construct: As antigen 'MSA' means murine serum albumin; the VHHs also carry the label MSA; also called MSA
# Test: BLI (Gator), His-tagged VHH on anti-His sensor, murine serum albumin 100 nM in solution
# Method: as §3
Kd [nM],koff [s⁻¹],kon [M⁻¹ s⁻¹],Binder
6.64,0.00117,176000,B13
5.32,0.000605,114000,B14

# Biological target: T2, recombinant human CD40-Fc
# Test: ELISA, CD40-Fc coated, VHH at 8 nM
# Method: as §1
row,OD450,Binder
1,1.66,B7
2,1.59,B8
3,1.41,B9
4,1.59,B10
5,0.09,B11

# Biological target: T2, recombinant human CD40-Fc
# Test: ELISA, CD40-Fc coated, VHH at 40 nM
# Method: as §1
row,OD450,Binder
1,1.72,B7
2,1.72,B8
3,1.68,B9
4,1.64,B10
5,0.256,B11
